Tests used:
Conditions in all cases: EMSA: 20 nM probe, 10 mM Tris-HCl pH 7.5, 50 mM KCl, 10 mM MgCl2, 5% glycerol, 20 min at 4 C, 5% native PAGE in TGE pH 8.3; footprinting: same binding system …
[1] = tested on: T1, CopR2 (Pseudomonas putida KT2440), ORF:6041cc23; experiment: DNase I footprinting
T1 sequence: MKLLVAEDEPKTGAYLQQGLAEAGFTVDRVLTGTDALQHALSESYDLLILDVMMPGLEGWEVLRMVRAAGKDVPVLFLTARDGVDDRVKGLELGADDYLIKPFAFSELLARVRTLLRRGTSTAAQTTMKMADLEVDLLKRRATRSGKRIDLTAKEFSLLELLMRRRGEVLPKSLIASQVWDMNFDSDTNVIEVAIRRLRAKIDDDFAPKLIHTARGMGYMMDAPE

[2] = tested on: T2, CopR1 (Pseudomonas putida KT2440), ORF:c26c307e; experiment: DNase I footprinting
T2 sequence: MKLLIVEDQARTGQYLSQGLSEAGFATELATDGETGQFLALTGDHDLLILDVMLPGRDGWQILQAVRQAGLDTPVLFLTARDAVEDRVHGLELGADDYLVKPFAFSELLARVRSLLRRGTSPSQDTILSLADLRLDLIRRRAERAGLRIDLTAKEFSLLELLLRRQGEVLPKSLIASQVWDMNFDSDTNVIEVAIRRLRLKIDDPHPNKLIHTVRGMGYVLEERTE

[3] = tested on: T1, CopR2 (Pseudomonas putida KT2440), ORF:6041cc23; experiment: EMSA
[4] = tested on: T2, CopR1 (Pseudomonas putida KT2440), ORF:c26c307e; experiment: EMSA

Measured: binding

CTTTGACAAACGTACGGCGGGAGGGGTTGCGCAACATGGCGAGGCCTCATGCGGAATAGCCACGATGTTCGCTGCCGCCTGCTGTCAGGTAGCTGAGGTGCACATTACAGTGTTGTCAGCTTGCTGCTTCGTCGATGCGCAGGTCGCGCATCAGCAGGCCGTAGTCGAGGGCAACCTGTTCCGGGATCGGCAGATACACCACATGGCCATCGCCCGGTGCGACCTCGATGGCGTGCTGCTACTGGCCGTCGTTTTACA (double strand) [copA1 (copAB1) promoter probe]
binds: [1] | [2] | [3] | [4]

TCGGTTCATCCTCAGCTACGAGTAGTTTCATGTGCTCAGCTTCCAAAGGTGTACACATCCAGTGTGCAGCAAAAAAAGGAGCTAACCAGAAGCTGACGTAAAAGTAATGTTGGTATCAGCCAGCTGTCAGGGCCTGCCGTCTACGGTCATTGAAGACGGGCATTGCAGTCACGCCTGCCGTTATCGGTAGCAATGGTTTCAACCCCCTGATGGAGAGAGTCCCATGAAATCGATCAGACTTTTGCTTGTGGCTACATCGATGCTGCTGACTGGCCGTCGTTTTACA (double strand) [copR2 (copRS2) promoter probe]
binds: [1] | [2] | [3] | [4]

TGTAAAACGACGGCCAGTGGGTGGCGGTAATGAACAGGTGTTTCATGATGACTCCGGGAATACACAGCAGGATGAGGCCACATTAGCCGGGGGCGACTGGCAGCTACCTGACAGGCACATTACAACTTTGTCAGCTTGGGCGAGCGGGCACATCGTCACGTATCATTTCAGCCATCCCATTGCCCCTGTGCTAGCGGTAAGGCGGCGCCATAGGCTACGCACAATCTTTCAGAATATGGACAGCGCATGAAACTGCTGATCGTCGAAGACCAGGC (double strand) [copR1 (copRS1) promoter probe]
binds: [1] | [2] | [3] | [4]

TGTAAAACGACGGCCAGTAGCCAGAGCCATAAACACGGGCAGCATGAGAACTGCTGATCCGAGCTTACAGAAATGTAATCACTCGGGAATCTTTTATGTGGCAGTTTCAAATCGCTTTCTCCCACTGTGACTTGCGCTTTCGAGCAAGTCCCTAAGACTTGTGGGATCCCCAAGGAAGCCGGGCCTGCGATCGAGCGGCCCGGATATCAGCGAATTATCTGACTGACTGGACACTACGGCATGCAAAGCAAAACCACGAGACGATCTTTCGTCAAAGGCCTGGC (double strand) [copA2 (copAB2) promoter probe]
binds: [1] | [2] | [3] | [4]

— article PMC12428095
